Experimental findings from publication PMC10011331, “Vitamin C transporter SVCT1 serves a physiological role as a urate importer: functional analyses and in vivo investigations” (Pflugers Archiv, 2023) are described below.

In data set [1] the test system is T1, O=c1[nH]c(=O)c2[nH]c(=O)[nH]c2[nH]1.
T1 construct: full-length human SVCT1 WT, EGFP fusion (pEGFP-N1)
The data set is described as follows: cells, lysate or membranes. As to conditions: Na+ urate and vitamin C could compete for SVCT1-mediated transport. The data set is classed as cell-based, Homo sapiens.

The test system of data set [2] is T2, O=c1[nH]c(=O)c2[nH]c(=O)[nH]c2[nH]1.
T2 construct: mouse Svct1 WT, EGFP fusion
As to the kind of experiment: cells, lysate or membranes. Type of data set: cell-based, Mus musculus. The following applies: Na+.

In the case of SVCT1 (Homo sapiens), in data set [1], the Michaelis-Menten constant (Km) stood at 1511 µM.

Svct1 (Mus musculus): in data set [2], the Km was found to be 646.9 µM.

A word on the Km: it is the concentration of substrate that gives half-maximal velocity.
